Assay results: patent US20090082262

Legend:
[1] = test system: T1, full size HCC-1 (HCC-1, residues 1-74)
T1 sequence: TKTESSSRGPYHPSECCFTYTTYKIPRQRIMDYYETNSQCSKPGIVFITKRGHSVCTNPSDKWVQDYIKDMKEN

PHC-1 (HCC-1[9-74]) = test system: T2, PHC-1 (HCC-1[9-74])
T2 sequence: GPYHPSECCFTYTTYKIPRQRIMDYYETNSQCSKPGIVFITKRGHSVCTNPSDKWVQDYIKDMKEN

Substance	proteolytic cleavage; product analysed by RP-HPLC, CCR5 aequorin assay, mass spectrometry and Edman degradation [1]	proteolytic degradation, activity after 90 min at 37° C with 10 or 100 IU urokinase (PHC-1 (HCC-1[9-74]))	tryptic digestion, 1 h, enzyme/substrate-ratio (w/w) 1/100 [1]
urokinase	identifying PHC-1 and full size HCC-1 as the major compounds in these fractions	No change of activity was observed after an incubation of 90 min at 37 °C	
trypsin			One cleavage product, the newly identified biologically active peptide PHC-1, comprising residues 9-74 of the HCC-1 precursor sequence, with the molecular mass of 7795 Da was obtained
